Data taken from patent US20090208416A1.

Assays:
[1] = biological target: NKG2A on rhesus monkey (Macaca mulatta) NK cells (rhesus monkey (Macaca mulatta)) (UniProt Q9MZJ3); assay: FACS rhesus whole blood NK cells, animal MM031
[2] = biological target: NKG2A on rhesus monkey (Macaca mulatta) NK cells (rhesus monkey (Macaca mulatta)) (UniProt Q9MZJ3); assay: FACS rhesus whole blood, animal R00085
[3] = biological target: NKG2A on rhesus monkey (Macaca mulatta) NK cells (rhesus monkey (Macaca mulatta)) (UniProt Q9MZJ3); assay: FACS rhesus whole blood, animal R00073 (6.1 kg)
[4] = biological target: NKG2A on baboon NK cells (baboon); assay: FACS baboon whole blood NK cells, animal V857C
[5] = biological target: NKG2A on baboon NK cells (baboon); assay: FACS baboon whole blood NK cells, animal V914B
[6] = biological target: NKG2A on baboon NK cells (baboon); assay: FACS baboon whole blood NK cells, animal V942A
[7] = biological target: NKG2A on rhesus monkey (Macaca mulatta) NK cells (rhesus monkey (Macaca mulatta)) (UniProt Q9MZJ3); assay: FACS rhesus whole blood, animal R00037
[8] = biological target: NKG2A on baboon NK cells (baboon); assay: FACS baboon whole blood NK cells, animal PA977
[9] = biological target: NKG2A on baboon NK cells (baboon); assay: FACS baboon whole blood NK cells, animal V9920
[10] = biological target: NKG2A on rhesus monkey (Macaca mulatta) NK cells (rhesus monkey (Macaca mulatta)) (UniProt Q9MZJ3); assay: FACS rhesus whole blood, animal R00093
[11] = biological target: NKG2A on rhesus monkey (Macaca mulatta) NK cells (rhesus monkey (Macaca mulatta)) (UniProt Q9MZJ3); assay: FACS rhesus whole blood, animal R00055
[12] = biological target: NKG2A on rhesus monkey (Macaca mulatta) NK cells (rhesus monkey (Macaca mulatta)) (UniProt Q9MZJ3); assay: FACS rhesus whole blood, animal R99273
[13] = biological target: NKG2A on rhesus monkey (Macaca mulatta) NK cells (rhesus monkey (Macaca mulatta)) (UniProt Q9MZJ3); assay: FACS rhesus whole blood, animal R00025
[14] = biological target: NKG2A on baboon NK cells (baboon); assay: FACS baboon whole blood NK cells, animal PA983
[15] = biological target: NKG2A on baboon NK cells (baboon); assay: FACS baboon whole blood NK cells, animal V999
[16] = biological target: NKG2A on baboon NK cells (baboon); assay: FACS baboon whole blood NK cells, animal V9812
[17] = biological target: NKG2A on rhesus monkey (Macaca mulatta) NK cells (rhesus monkey (Macaca mulatta)) (UniProt Q9MZJ3); assay: FACS rhesus whole blood NK cells, animal P9215
[18] = biological target: NKG2A on baboon NK cells (baboon); assay: FACS baboon whole blood NK cells, animal V9929
[19] = biological target: NKG2A on cynomolgus monkey NK cells (cynomolgus monkey) (UniProt Q68VD2); assay: FACS cynomolgus whole blood, animal R390
[20] = biological target: NKG2A on rhesus monkey (Macaca mulatta) NK cells (rhesus monkey (Macaca mulatta)) (UniProt Q9MZJ3); assay: FACS rhesus whole blood, animal R00061
[21] = biological target: NKG2A on rhesus monkey (Macaca mulatta) NK cells (rhesus monkey (Macaca mulatta)) (UniProt Q9MZJ3); assay: FACS rhesus whole blood NK cells, animal N0401
[22] = biological target: NKG2A on baboon NK cells (baboon); assay: FACS baboon whole blood NK cells, animal V997
[23] = biological target: NKG2A on rhesus monkey (Macaca mulatta) NK cells (rhesus monkey (Macaca mulatta)) (UniProt Q9MZJ3); assay: FACS rhesus whole blood NK cells, animal 201
[24] = biological target: NKG2A on cynomolgus monkey NK cells (cynomolgus monkey) (UniProt Q68VD2); assay: FACS cynomolgus whole blood, animal M859
[25] = biological target: NKG2A on baboon NK cells (baboon); assay: FACS baboon whole blood NK cells, animal V9914
[26] = biological target: NKG2A on rhesus monkey (Macaca mulatta) NK cells (rhesus monkey (Macaca mulatta)) (UniProt Q9MZJ3); assay: FACS rhesus whole blood, animal R00007
[27] = biological target: NKG2A on baboon NK cells (baboon); assay: FACS baboon whole blood NK cells, animal V918C
[28] = biological target: NKG2A on rhesus monkey (Macaca mulatta) NK cells (rhesus monkey (Macaca mulatta)) (UniProt Q9MZJ3); assay: FACS rhesus whole blood, animal R00101
[29] = biological target: NKG2A on rhesus monkey (Macaca mulatta) NK cells (rhesus monkey (Macaca mulatta)) (UniProt Q9MZJ3); assay: FACS rhesus whole blood, animal R00041
[30] = biological target: NKG2A on rhesus monkey (Macaca mulatta) NK cells (rhesus monkey (Macaca mulatta)) (UniProt Q9MZJ3); assay: FACS rhesus whole blood, animal R00013
[31] = biological target: NKG2A on rhesus monkey (Macaca mulatta) NK cells (rhesus monkey (Macaca mulatta)) (UniProt Q9MZJ3); assay: FACS rhesus whole blood, animal R00073 (5.6 kg)
[32] = biological target: NKG2A on rhesus monkey (Macaca mulatta) NK cells (rhesus monkey (Macaca mulatta)) (UniProt Q9MZJ3); assay: FACS rhesus whole blood, animal R00099
[33] = biological target: NKG2A on rhesus monkey (Macaca mulatta) NK cells (rhesus monkey (Macaca mulatta)) (UniProt Q9MZJ3); assay: FACS rhesus whole blood NK cells, animal CH256

UniProt Q9MZJ3, sequence (Q9MZJ3 whole entry): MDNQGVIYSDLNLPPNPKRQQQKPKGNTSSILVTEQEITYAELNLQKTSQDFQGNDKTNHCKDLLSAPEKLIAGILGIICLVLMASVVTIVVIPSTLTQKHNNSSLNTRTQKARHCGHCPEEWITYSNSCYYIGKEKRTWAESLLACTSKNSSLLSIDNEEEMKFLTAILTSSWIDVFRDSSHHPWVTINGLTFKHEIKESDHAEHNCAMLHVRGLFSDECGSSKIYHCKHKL
UniProt Q68VD2, sequence (Q68VD2 entry or part of it): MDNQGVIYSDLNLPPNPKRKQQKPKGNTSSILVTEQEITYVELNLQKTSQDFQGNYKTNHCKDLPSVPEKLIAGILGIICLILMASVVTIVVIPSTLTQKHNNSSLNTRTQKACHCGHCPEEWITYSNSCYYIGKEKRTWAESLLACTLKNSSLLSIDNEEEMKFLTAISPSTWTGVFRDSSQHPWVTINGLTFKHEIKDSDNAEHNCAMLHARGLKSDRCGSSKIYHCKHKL

mouse IgG1 isotype control (antibody)
% [1]: 0.4% | % NK+ [2]: 0.9% | MFI [2]: 0.7 | % NK+ [3]: 0.7% | MFI [3]: 0.59 | % [4]: 0.8% | tot. MFI [4]: 1.4 | % [5]: 0.4% | tot. MFI [5]: 1.1 | % [6]: 1.7% | tot. MFI [6]: 1 | % NK+ [7]: 0.6% | MFI [7]: 0.5 | % [8]: 0.9% | tot. MFI [8]: 1.1 | % [9]: 0.7% | tot. MFI [9]: 0.8 | % NK+ [10]: 1% | MFI [10]: 0.68 | % NK+ [11]: 0.6% | MFI [11]: 0.7 | % NK+ [12]: 0.5% | MFI [12]: 0.54 | % NK+ [13]: 0.7% | MFI [13]: 0.45 | % [14]: 0.1% | tot. MFI [14]: 0.7 | % [15]: 0.3% | tot. MFI [15]: 0.2 | % [16]: 1.3% | tot. MFI [16]: 1.2 | % [17]: 1.4% | % [18]: 0.3% | tot. MFI [18]: 0.2 | % NK+ [19]: 0.2% | MFI [19]: 0.39 | % NK+ [20]: 0.5% | MFI [20]: 0.5 | % [21]: 0.5% | % [22]: 0.7% | tot. MFI [22]: 0.2 | % [23]: 1.3% | % NK+ [24]: 0.2% | MFI [24]: 0.51 | % [25]: 0.1% | tot. MFI [25]: 0.3 | % NK+ [26]: 1.5% | MFI [26]: 0.52 | % [27]: 0.3% | tot. MFI [27]: 1.1 | % NK+ [28]: 0.5% | MFI [28]: 0.58 | % NK+ [29]: 0.9% | MFI [29]: 0.48 | % NK+ [30]: 0.3% | MFI [30]: 0.66 | % NK+ [31]: 0.5% | MFI [31]: 0.4 | % NK+ [32]: 1.2% | MFI [32]: 0.56 | % [33]: 0.8%
